Results published in patent publication US20220396624A1 (HC BIOPHARMA SHANGHAI, published 2022).

Key:
[1] = target: T1, human PD-L1 on 293T-h-PDL1 cells (human, UniProt Q9NZQ7 19-238); experiment: FACS, purified antibody on 293T-h-PDL1 cells
Protocol: (§1) Then 100 μl of flow cytometry buffer was added to each flow cytometry tube and resuspension was performed. […] Then 1 ml of flow cytometry buffer was added and centrifuged at 1200 rpm for 5 minutes at room temperature, the supernatant was discarded and the washing was repeated three times. 250 μl of flow cytometry buffer was added to each flow cytometry tube again, the pellet was resuspended and mixed. The resulting samples was detected by the machine.
Control tube 1 (no antibody and secondary antibody, only cell suspension was added) and control tube 2 (no antibody, only cell suspension and secondary antibody was added) were set.

[2] = target: T1, human PD-L1 on 293T-h-PDL1 cells; experiment: FACS, hybridoma culture supernatant on 293T-h-PDL1 cells
Protocol: 1 ml of flow cytometry buffer was added to each flow cytometry tube and centrifuged at 1200 rpm for 5 minutes. The supernatant was discarded and the washing was repeated three times. At the same time, both control tube 1 (no culture supernatant and secondary antibody below, only the cell suspension was added) and control tube 2 (no culture supernatant, only cell suspension and secondary antibody below were added) were set.
as §1

[3] = target: T2, fusion protein of the extracellular region of human PD-L1 and human IgG1-FC (human, UniProt Q9NZQ7 19-238); experiment: FACS blocking of PD-L1-hFc binding to 293T-h-PD1 cells, purified antibody
T2 construct: PD-L1 is put first by convention; also called fusion protein PD-L1 (hFC tag)
T2 sequence (Q9NZQ7 19-238): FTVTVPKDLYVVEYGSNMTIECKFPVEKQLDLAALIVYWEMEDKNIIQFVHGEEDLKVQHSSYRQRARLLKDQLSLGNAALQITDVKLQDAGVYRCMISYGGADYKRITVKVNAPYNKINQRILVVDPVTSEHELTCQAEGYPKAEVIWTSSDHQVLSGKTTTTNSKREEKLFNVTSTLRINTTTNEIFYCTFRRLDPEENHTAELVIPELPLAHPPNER
Protocol: (§2) Each well was then washed twice by adding 400 μl FACS buffer, PE anti-human IgG Fc secondary antibody was added and incubated for 1 hour, after which each well was washed twice by adding 400 μl FACS buffer. Detection was performed.

[4] = target: T2, fusion protein of the extracellular …; experiment: FACS blocking of PD-L1-hFc binding to 293T-h-PD1 cells, hybridoma supernatant
Protocol: as §2

[5] = target: T3, extracellular region of human PD-L1 protein (positions 19-238 of SEQ ID NO: 3) (human, UniProt Q9NZQ7 19-238); experiment: ForteBio Octet (BLI), antibody 20 nM, PD-L1 ECD from 30 nM in 3-fold dilutions
T3 construct: also called Human PD-L1-his; antigen PD-L1
T3 sequence (Q9NZQ7 19-238): as above
Protocol: The murine antibody, chimeric antibody and humanized antibody of the present invention were dissolved in PBS to obtain 20 nM solutions.
The affinities of the antibody-antigen were determined using the ForteBio Octet as an affinity detection instrument.

[6] = target: T3, extracellular region of human PD-L1 …; experiment: ForteBio Octet (BLI), antibody immobilized, PD-L1 ECD 6.25-200 nM; culture supernatant
Protocol: (§3) A 96-well plate was obtained, and 200 μl SD buffer (1×PBS+0.02% Tween20+0.1% BSA) was added to each well, the plate was placed in ForteBio Octet and pre-circulated.

[7] = target: T3, extracellular region of human PD-L1 …; experiment: ForteBio Octet (BLI), antibody immobilized, PD-L1 ECD 6.25-200 nM; antibody after purification
Protocol: as §3
The antibody was immobilized and the concentration of the antibody after supernatant purification was 10 μg/ml.

T1 sequence (Q9NZQ7 19-238): as above

| Binder | EC50 [1] [µg/mL] | EC50 [2] [µg/mL] | IC50 [3] [µg/mL] | IC50 [4] [µg/mL] | Kd [5] [nM] | koff [5] [s⁻¹] | Kd [6] [nM] | koff [6] [s⁻¹] | Kd [7] [nM] | koff [7] [s⁻¹] |
| --- | --- | --- | --- | --- | --- | --- | --- | --- | --- | --- |
| chimeric antibody 14A7(chi) (antibody, V domains shown, also called 14A7-4(chi)) VH: QVQLKQSGAELVRPGTSVKMSCKATEYTFTNNWIAWVKQRPGHGLEWVGDIHPGGGFTNYNEKFKVKATLTADTSSSTAYMQLRSLTSEDSAIYYCAGSKTRDYDAWFAYWGQGTLVTVSA VL: DIVMTQAPSSLAVSVGEKVTLNCKSSQSLLYTGNQKNYLAWYQQKPGQSPKLLIYWASTRESGVPDRFTGSGSGTDFTLTISNVKAEDLAVYFCQQYYTYRTFGGGTKLEIKR | 1.32 | – | 5.66 | – | 4.56 | 0.00173 | – | – | – | – |
| chimeric antibody 13C9-1(chi) (antibody, V domains shown, Chimeric antibody of murine 13C9) VH: QVQLKQSGAGLVKPGASVKLSCKASGYIFTEYIIHWVKQRSGQGLEWIGWFYPGSDNIKYNEKFKDKATLTADKSSSTVYMELSRLTSEDSAVYFCARHETGYFFDYWGQGTTLTVSS VL: DIVITQSPAIMSASPGEKVTMTCSASSSVSKMNWYQQKSGTSPKRWIYDTSKLASGVPSRFSGSGSGTSYSLTISSMEAEDAATYYCQQWSSNPLTFGSGTKLELKR | 1.42 | – | 2.47 | – | – | – | – | – | – | – |
| murine antibody 6G5 (A12) (antibody, V domains shown, Mouse hybridoma antibody (subclone 6G5-2); Only variable domains printed; the printed VL is identical to that of 13C9; also called 6G5-2) VH: QVQLKQSGAELVRPGTSVKMSCKATEYTFTNNWIAWVKQRPGHGLEWIGDIHPGGGYTNYNEKFKGKATLTADTSSSTAYMQLSSLTSEDSAIYYCAGSKTRDYDSWFAYWGQGTLVTVSA VL: DIVITQSPAIMSASPGEKVTMTCSASSSVSKMNWYQQKSGTSPKRWIYDTSKLASGVPSRFSGSGSGTSYSLTISSMEAEDAATYYCQQWSSNPLTFGSGTKLELKR | – | – | – | – | – | – | 0.111 | 7.94e-05 | 1.07 | 0.000838 |
| murine antibody 8A2 (A8) (antibody, V domains shown, Mouse hybridoma antibody (subclone 8A2-2); Only variable domains printed; also called 8A2-2) VH: QVQLKQSGPGLVAPSQSLSITCTVSGFSLTGYGVNWVRQPPGKGLEWLGKIWGDGITDYNSALKSRLSISKDNSKSQVFLKMNSLQTDDTARYYCARDVMDYWGQGTSVTVSS VL: QIVLTQSPAIMSASPGEKVTMTCSASSSISYMHWYQQKPGTSPKRWIYDTSKLASGVPARFSGSESGTSYSLTISSMEAEDAATYYCHHRSPYPTFGAGTKLELK | – | 0.336 | – | 5.17 | – | – | 2.04 | 0.00034 | 4200 | 0.137 |
| murine antibody 10A3 (A11) (antibody, V domains shown, Mouse hybridoma antibody (subclone 10A3-3); Only variable domains printed; also called 10A3-3) VH: QVQLKQSGPGLVAPSQSLSITCTVSGFSLTGYGVNWVRQPPGKGLEWLGKIWGDGITDYNSALKSRLSISKDNSKSQVFLKMNSLQTEDTARYYCARDVMDYWGQGTSVTVSS VL: QIVLTQSPAIMSASPGEKVTMTCSASSSINYMHWFQQKPGTSPKRWIYDTSKLASGVPARFSGSESGTSYSLTISSMEAEDAATYYCHHRSPYPTFGAGTKLELKR | – | – | – | – | – | – | 0.34 | 5.15e-05 | 906 | 0.0296 |
| murine antibody 2E5 (A10) (antibody, V domains shown, Mouse hybridoma antibody (subclone 2E5-9); Only variable domains printed; also called 2E5-9) VH: QVQLKQSGPGLVAPSQSLSITCTVSGFSLTGYGVNWVRQPPGKGLEWLGKIWGDGITDYNSALKSRLSISKDNSKSQVFLKMNSLQTEDTARYYCARDVMDYWGQGTSVTVSS VL: DVLMTQIPLSLPVSLGDQASISCRSSQSIEQSNGNTYLEWYLQKPGQSPKVLIYKVSNRFSGVPDRFSGSGSGTDFTLKISRVESEDLGVYYCFQGSHVPYTFGGGTKLEIK | – | – | – | – | – | – | 0.175 | 5.61e-05 | 15 | 0.00376 |
| murine antibody 7E5 (A9) (antibody, V domains shown, Mouse hybridoma antibody (subclone 7E5-2); Only variable domains printed; also called 7E5-2) VH: QVQLKQSGPGLVAPSQSLSITCTVSGFSLTGYGVNWVRQPPGKGLEWLGKIWGDGSTDYTSALKSRLSISKDNSKSQVFLKVNSLQTDDTARYYCARDVMDYWGQGTSVTVSS VL: QIVLTQSPAIMSASPGEKVTMTCSASSSISYMHWFQQKPGTSPKRWIYDTSKLASGVPARFSGSESGTSYSLTISSMEAEDAATYYCHQRSPYPTFGAGTKLELK | – | – | – | – | – | – | 0.498 | 0.000172 | 3930 | 0.11 |
| humanized antibody 14A7(hz) (antibody, V domains shown, also called 14A7-4(hz)) VH: QVQLVQSGAEVKKPGASVKVSCKASEYTFTNNWIAWVRQAPGQGLEWVGDIHPGGGFTNYNEKFKVRATLTADTSTSTAYMELSSLRSEDTAVYYCAGSKTRDYDAWFAYWGQGTTVTVSS VL: DIQMTQSPSTLSASVGDRVTITCKSSQSLLYTGNQKNYLAWYQQKPGKAPKLLIYWASTRESGVPSRFSGSGSGTEFTLTISSLQPDDFATYYCQQYYTYRTFGQGTKVEIKR | 0.77 | – | 1.95 | – | 0.884 | 0.000358 | – | – | – | – |

Second part, the binder after the results:

| EC50 [1] [µg/mL] | EC50 [2] [µg/mL] | IC50 [3] [µg/mL] | IC50 [4] [µg/mL] | Kd [5] [nM] | koff [5] [s⁻¹] | Kd [6] [nM] | koff [6] [s⁻¹] | Kd [7] [nM] | koff [7] [s⁻¹] | Binder |
| --- | --- | --- | --- | --- | --- | --- | --- | --- | --- | --- |
| 0.8 | 0.538 | 2.27 | 2.31 | 0.545 | 0.000359 | 0.0557 | 2.78e-05 | 0.882 | 0.000647 | murine antibody 14A7 (A1) (antibody, V domains shown, Mouse hybridoma antibody (subclone 14A7-4), tested as culture supernatant or purified from it; Only the variable domains are printed; also called 14A7-4) VH: QVQLKQSGAELVRPGTSVKMSCKATEYTFTNNWIAWVKQRPGHGLEWVGDIHPGGGFTNYNEKFKVKATLTADTSSSTAYMQLRSLTSEDSAIYYCAGSKTRDYDAWFAYWGQGTLVTVSA VL: DIVMTQAPSSLAVSVGEKVTLNCKSSQSLLYTGNQKNYLAWYQQKPGQSPKLLIYWASTRESGVPDRFTGSGSGTDFTLTISNVKAEDLAVYFCQQYYTYRTFGGGTKLEIK |
| – | 1.45 | – | 4 | – | – | – | – | – | – | murine antibody 15G10 (A2) (antibody, V domains shown, Mouse hybridoma antibody (subclone 15G10-3), tested as culture supernatant; Only variable domains printed; also called 15G10-3) VH: QVQLKQSGPELVKPGASVKTSCKASGYTFTNYVVHWVKQNPGQGLEWIGYVNPNNDGTIFNEKFKDKAILTSDKSSSTAYMELSSLTSEDSAVYYCARSPFAHWGQGTLVTVSA VL: QIVLTQSPASLTVSLGQRATISCSASESVDFYGTSLMQWFQQKPGQPPKLLVYTASNVDSEVPARFSGSGSGTDFSLNIHPVEEDDIAMYFCHQTRKVPYTFGGGTKLEIK |
| – | 0.39 | – | 2.31 | – | – | 0.00924 | 6.26e-06 | 0.785 | 0.000785 | murine antibody 28B1 (A5), subclone 28B1-2 (antibody, V domains shown, Mouse hybridoma antibody; Only variable domains printed) VH: QVQLKQSGAELVKPGASVMLSCTASAFNIDDTYIHWVKQRPEQGLEWIGRIDPANGNTDYDPECQGKATITTDMSSNTAYLQLSSLTSEDTAVYFCARGLRLPGLVYWGRGTLVTVSA VL: DIQMTQTTSSLSASLGDRVTISCRASQDISNYLNWYQQKPDGTVKLLIYYTSILYSGVPSRFSGSGSGTDYSLTINTLEEEDIATYFCQQGNTLPWTFGGGTKLEIIR |
| – | – | – | – | – | – | < 0.001 | < 1e-07 | 0.748 | 0.000723 | murine antibody 28B1 (A5), subclone 28B1-7 (antibody, V domains shown) VH: QVQLKQSGAELVKPGASVMLSCTASAFNIDDTYIHWVKQRPEQGLEWIGRIDPANGNTDYDPECQGKATITTDMSSNTAYLQLSSLTSEDTAVYFCARGLRLPGLVYWGRGTLVTVSA VL: DIQMTQTTSSLSASLGDRVTISCRASQDISNYLNWYQQKPDGTVKLLIYYTSILYSGVPSRFSGSGSGTDYSLTINTLEEEDIATYFCQQGNTLPWTFGGGTKLEIIR |
| – | 0.517 | – | 4.31 | – | – | 0.0714 | 4.43e-05 | 0.528 | 0.000481 | murine antibody 22B10 (A6) (antibody, V domains shown, Mouse hybridoma antibody (subclone 22B10-1); Only variable domains printed; also called 22B10-1) VH: QVQLKQSGAELVKPGASVELSCTASGFNIEDTYLHWVNQRPEQGLEWIGRIDPANGNTYYDPKFQGKATITTDTSSNTAYLQLSRLTSEDTAVYYCARGLRLPGFPYWGQGTLVTVSA VL: DIQMTQTPSSLSASLGDRVTISCRASQDISNYLSWYQQKPDGTVKLLIYYTSILHSGVPSRFSGSGSGTDYSLAISNLDQEDIATYFCQQGNTLPWTFGGGTKLEIKR |
| 0.49 | 0.44 | 2.38 | 1.95 | – | – | 0.00181 | 6.32e-07 | 2.78 | 0.00117 | murine antibody 13C9 (A3) (antibody, V domains shown, Mouse hybridoma antibody (subclone 13C9-1), tested as culture supernatant or purified; Only variable domains printed (the VL as printed ends in RA); also called 13C9-1) VH: QVQLKQSGAGLVKPGASVKLSCKASGYIFTEYIIHWVKQRSGQGLEWIGWFYPGSDNIKYNEKFKDKATLTADKSSSTVYMELSRLTSEDSAVYFCARHETGYFFDYWGQGTTLTVSS VL: DIVITQSPAIMSASPGEKVTMTCSASSSVSKMNWYQQKSGTSPKRWIYDTSKLASGVPSRFSGSGSGTSYSLTISSMEAEDAATYYCQQWSSNPLTFGSGTKLELKR |
| – | 0.125 | – | – | – | – | 0.586 | 0.000662 | 936 | 0.191 | murine antibody 18B4 (A4) (antibody, V domains shown, Mouse hybridoma antibody (subclone 18B4-2); Only variable domains printed; also called 18B4-2) VH: QVQLKQSGPELEKPGASVKISCKASGYSFTGYNMNWVKQSNGKSLEWIGNIDPYYGVTHYNQKFKGKATLTVDESSSTASMQLKSLTSEDSAIYYCARGIPFYGLDYWGQGTSVTVSS VL: QIVLTQSPAIMSASPGEKVTMTCGASSSVSFMHWYQQKSGTSPKRWIYDTSKLASGVPARFSGSGSGTSYSLTISSMEAEDAATYYCQQWNTNPFTFGSGTKLEIKR |
